Consider one substance from patent US20020103147A1.

This test has as its target transgene murine adenylylcyclase isoform VI (ACVI) with HA-tag, from the truncated construct of Example 5-2 (murine) (UniProt Q01341). The test is described as follows: cell-based or functional assay.

Sequence of transgene murine adenylylcyclase isoform VI (ACVI) with HA-tag, from the truncated construct of Example 5-2 (murine) (Q01341 whole entry, the tested form may be a part, canonical isoform): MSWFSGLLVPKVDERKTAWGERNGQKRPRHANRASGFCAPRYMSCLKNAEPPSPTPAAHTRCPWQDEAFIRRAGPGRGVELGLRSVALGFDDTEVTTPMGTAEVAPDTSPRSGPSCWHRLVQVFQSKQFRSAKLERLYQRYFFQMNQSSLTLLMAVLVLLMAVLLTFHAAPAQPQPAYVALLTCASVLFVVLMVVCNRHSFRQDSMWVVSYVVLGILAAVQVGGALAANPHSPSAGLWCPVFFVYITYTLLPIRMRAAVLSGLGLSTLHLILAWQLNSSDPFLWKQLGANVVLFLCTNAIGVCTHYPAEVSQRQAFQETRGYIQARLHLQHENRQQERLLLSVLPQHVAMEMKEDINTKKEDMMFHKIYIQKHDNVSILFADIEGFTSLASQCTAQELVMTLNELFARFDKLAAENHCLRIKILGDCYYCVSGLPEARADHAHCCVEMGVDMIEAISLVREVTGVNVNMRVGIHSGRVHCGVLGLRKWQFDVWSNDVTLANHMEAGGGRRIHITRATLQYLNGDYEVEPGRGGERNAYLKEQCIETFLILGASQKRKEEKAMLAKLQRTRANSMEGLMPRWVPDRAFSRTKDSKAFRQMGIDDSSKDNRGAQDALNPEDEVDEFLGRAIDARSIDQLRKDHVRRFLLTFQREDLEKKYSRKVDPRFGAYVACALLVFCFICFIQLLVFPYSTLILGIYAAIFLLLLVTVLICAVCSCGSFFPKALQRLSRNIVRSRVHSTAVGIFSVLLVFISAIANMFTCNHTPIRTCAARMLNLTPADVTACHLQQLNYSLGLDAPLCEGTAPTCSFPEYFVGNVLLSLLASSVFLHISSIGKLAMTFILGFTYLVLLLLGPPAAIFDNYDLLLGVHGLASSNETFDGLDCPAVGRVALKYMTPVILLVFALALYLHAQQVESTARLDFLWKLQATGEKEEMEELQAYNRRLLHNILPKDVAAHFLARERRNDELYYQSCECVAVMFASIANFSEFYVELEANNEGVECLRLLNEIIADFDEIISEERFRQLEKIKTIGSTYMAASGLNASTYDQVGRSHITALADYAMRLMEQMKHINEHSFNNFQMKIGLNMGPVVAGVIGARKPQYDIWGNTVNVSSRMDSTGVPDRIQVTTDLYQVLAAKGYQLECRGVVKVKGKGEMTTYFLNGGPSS

As to “Gs (stimulatory GTP-binding protein) of neonatal rat cardiac myocytes (from UniProt P63095 2-394)”, the Net GTP gamma S-stimulated forskolin binding was 447 cpm.
